Earlier results, collected in US20100143424A1, “CASEIN NANOPARTICLE” (FUJIFILM CORPORATION, priority 2008, published 2010).

Settings: casein derived from milk, Wako Pure Chemical Industries

## casein
  isoelectric point: 4.3
